Test results taken from patent publication US20240199727A1 (INVETX, published 2024).

B1: canine 2166 chimeric antibody (antibody, V domains shown)
VH: QVQLKESGPGLVQPSQTLSLTCTVSGLSLTSNSVSWIRQPPGKGLEWMGVIWSNGGTDYNSAIESRLSINRDTSKSQVFLKMNSLQPEDTAMYFCASIYYYDADYLHWYFDFWGPGTMVTVSS
VL: DIQMTQSPASLSASLGETVSIECLASEGISNSLAWYQLKPGKSPQFLIYATSSLQDGVPSRFSGSGSGTQYSLKISGMQPEDEGVYYCQQGYKFPLTFGSGTKLKIKR
notes: also called canine chimeric antibody
B2: SC-184_76 (antibody, from a related filing, V domains shown)
VH: DVQLVESGGDLVKPGGSLRLTCVASGLSLTSDSMSWVRQAPGKGLQWVSTLWSNGGTYYTDSVKGRFTISKDNAENTLYLQMNNLKTEDTATYYCASIYYYEADYLHWYFDFWGQGALVTVSS
VL: EIQMTQSPTSLSASVGDRVTITCRASEGIANNLSWYQQTPGKAPKLLIYATSNLHSGVPSRFSGSGSGTDFTLTISSLQPEDFATYYCQQGFKWPLTFGGGTKLEIT
B3: felinized clone 101 (antibody, V domains shown)
VH: DVQLVESGGDLVKPGGSLRLTCVASGLSLTSSSMSWVRQAPGKGLQWVSTIYSNGGTYYTDSVKGRFTISKDNAENTLYLQMNNLKTEDTATYYCASIYYYDADYLHWYFDFWGQGALVTVSS
VL: EIQMTQSPTSLSASVGDRVTITCRASEGISNNLSWYQQTPGKAPKLLIYATSNLHSGVPSRFSGSGSGTDFTLTISSLQPEDFATYYCQQGYKWPLTFGGGTKLEIT
B4: SC-184_110-Arg (antibody, V domains shown)
VH: DVQLVESGGDLVKPGGSLRLTCVASGLSLTSASMSWVRQAPGKGLQWVSTIYSNRGTYYTDSVKGRFTISKDNAENTLYLQMNNLKTEDTATYYCASIYYYEAEYLHWYFDFWGQGALVTVSS
VL: EIQMTQSPTSLSASVGDRVTITCRASEGISKNLSWYQQTPGKAPKLLIYATDNLHSGVPSRFSGSGSGTDFTLTISSLQPEDFATYYCQQGWKWPLTFGGGTKLEIT
B5: SC-184_110 (antibody, from a related filing, IgG1a, V domains shown)
VH: DVQLVESGGDLVKPGGSLRLTCVASGLSLTSASMSWVRQAPGKGLQWVSTIYSNGGTYYTDSVKGRFTISKDNAENTLYLQMNNLKTEDTATYYCASIYYYEAEYLHWYFDFWGQGALVTVSS
VL: EIQMTQSPTSLSASVGDRVTITCRASEGISKNLSWYQQTPGKAPKLLIYATDNLHSGVPSRFSGSGSGTDFTLTISSLQPEDFATYYCQQGWKWPLTFGGGTKLEIT
B6: SC-184_76-Arg (antibody, V domains shown)
VH: DVQLVESGGDLVKPGGSLRLTCVASGLSLTSDSMSWVRQAPGKGLQWVSTLWSNRGTYYTDSVKGRFTISKDNAENTLYLQMNNLKTEDTATYYCASIYYYEADYLHWYFDFWGQGALVTVSS
VL: EIQMTQSPTSLSASVGDRVTITCRASEGIANNLSWYQQTPGKAPKLLIYATSNLHSGVPSRFSGSGSGTDFTLTISSLQPEDFATYYCQQGFKWPLTFGGGTKLEIT
B7: AHF17602 (antibody, V domains shown)
VH: DVQLVESGGDLVKPGGSLRLTCVASGLSLTSSSMVWVRQAPGKGLQWVSTIYSNRGTYYTDSVKGRFTISKDNAENTLYLQMNNLKTEDTATYYCASIYYYDADYLHWYFDFWGQGALVTVSS
VL: EIQMTQSPTSLSASVGDRVTITCRASEGIANNLSWYQQTPGKAPKLLIYATSNLHSGVPSRFSGSGSGTDFTLTISSLQPEDFATYYCQQGYKWPLTFGGGTKLEIT

How the values were obtained:
[1] = target: T1, canine NGF tagged at the C-terminus with the Flag tag (canine, UniProt A0A8I3PYI3 122-241); test: SPR Biacore T200; antibody captured on protein A chip, NGF analyte
T1 construct: Baculovirus expression
T1 sequence (A0A8I3PYI3 entry or part of it): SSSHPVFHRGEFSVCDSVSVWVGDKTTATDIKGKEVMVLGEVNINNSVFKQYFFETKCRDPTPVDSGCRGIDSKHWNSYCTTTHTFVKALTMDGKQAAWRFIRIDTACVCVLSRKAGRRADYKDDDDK
Procedure: The running buffer was HBS-EP buffer (10 mM HEPES, pH 7.4, 150 mM NaCl, 3 mM EDTA, 0.005% tween 20) and the instrument temperature was set at 25 °C. […] The binding signals were corrected for the blank and the resulting sensorgram (FIG. 5) was used to determine the rate constants (kₐ and kd) and binding affinity (KD) using a one-to-one binding model with the BIAEVAL software.

[2] = target: canine NGF tagged at the C-terminus with the Flag tag (canine); test: SPR, Biacore T200; antibody captured on anti-feline CM5 chip, NGF analyte, 1:1 fit
canine NGF tagged at the C-terminus with the Flag tag (canine), sequence (chain, as listed by the source): as the sequence (A0A8I3PYI3 entry or part of it) above

[3] = target: T2, canine NGF tagged at the C-terminus with the Flag tag (canine, UniProt A0A8I3PYI3 122-241); test: SPR competition; Ab pre-incubated with 10 nM NGF at Ab to NGF ratio 10 to 1, injected over captured feline TrkA (competitor)
T2 construct: mature; also called feline NGF (processed form identical)
T2 sequence (A0A8I3PYI3 entry or part of it): as above

[4] = target: T2, canine NGF tagged at the C-terminus …; test: SPR competition; Ab pre-incubated with 50 nM NGF at Ab to NGF ratio 5 to 1, injected over captured feline p75 (competitor)
[5] = target: T2, canine NGF tagged at the C-terminus …; test: SPR competition; Ab pre-incubated with 10 nM NGF at Ab to NGF ratio 50 to 1, injected over captured feline TrkA (competitor)
[6] = target: T2, canine NGF tagged at the C-terminus …; test: SPR competition; Ab pre-incubated with 50 nM NGF at Ab to NGF ratio 1 to 1, injected over captured feline p75 (competitor)

Row | Binder | koff [1] | Kd [2] | koff [2] | kon [2] | % Block [3] | % Block [4] | % Block [5] | % Block [6]
1 | B1 | 3.5e-06 s⁻¹ |  |  |  |  |  |  | 
2 | B2 |  | 0.472 nM | 0.000396 s⁻¹ | 838000 M⁻¹ s⁻¹ |  |  |  | 
3 | B3 |  |  |  |  | 15% | 87% | 76% | 42%
4 | B4 |  |  |  |  | 100% | 100% | 100% | 100%
5 | B5 |  | 0.773 nM | 0.00038 s⁻¹ | 492000 M⁻¹ s⁻¹ |  |  |  | 
6 | B6 |  |  |  |  | 99% | 100% | 100% | 100%
7 | B7 |  |  |  |  | 99% | 100% | 100% | 100%
